Experimental findings from patent publication US20110223155A1 are described below.

Experiment [1] has as its target full-length human Notch3 receptor expressed on cells (human) (UniProt Q9UM47). Briefly: cell-based or functional assay.
Experiment [2] addresses Notch3-LD/Fc fusion protein (Notch3 LIN12/dimerization domain fused to human gamma 1 Fc) (human) (UniProt Q9UM47). The experiment in a line: ELISA on coated Notch3-LD/Fc. In general terms: In an ELISA, binding on a coated surface is turned into a signal by an enzyme label.
In experiment [3] the target is human Notch1-LD/Fc (LIN/dimerization domain fused to Fc region at the carboxyl terminus) (human) (UniProt P46531). Briefly: ELISA on coated Notch1-LD/Fc.
UniProt P46531, sequence (P46531 1440-1735 limits assumed, form in doubt): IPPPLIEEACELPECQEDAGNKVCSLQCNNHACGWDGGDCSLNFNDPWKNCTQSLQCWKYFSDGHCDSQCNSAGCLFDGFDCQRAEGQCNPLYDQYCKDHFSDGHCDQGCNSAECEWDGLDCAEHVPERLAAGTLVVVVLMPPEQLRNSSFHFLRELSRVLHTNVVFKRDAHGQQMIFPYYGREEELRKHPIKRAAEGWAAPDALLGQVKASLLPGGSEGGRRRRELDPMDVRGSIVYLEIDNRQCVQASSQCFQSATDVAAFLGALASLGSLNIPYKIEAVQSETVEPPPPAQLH

In turn, “human Jagged1 expressed on 293T cells (Jagged1/293T) (from UniProt P78504 34-1218) (ligand)” returned a luciferase activity (CBF1-Luc reporter) of NC85 cells cocultured with Jagged1/293T, against coculture with PCDNA 3.1/293T in experiment [1] of 2 to 4 fold.
“Control IgG1 (irrelevant IgG1 monoclonal antibody)”: the figures for the ELISA OD reading (mean) in experiment [2] and in experiment [3] were 0.064 OD 450 nm and 0.066 OD 450 nm, respectively.
For “human Jagged2 expressed on 293 cells (Jagged2/293F) (from UniProt Q9Y219 24-1238) (ligand)”, the luciferase activity (CBF1-Luc reporter) of NC85 cells cocultured with Jagged2/293F, against coculture with PCDNA 3.1/293T in experiment [1] is 2 to 4 fold.
